One may read the Kd as the free concentration of one partner at which half of the binding sites on the other are occupied at equilibrium, for simple one-to-one binding. Read a low Kd as higher affinity.

The record followed here is patent publication US7947462 (dated 2011).

For assay [1], the target named is DKK1-AP. The assay can be described thus: Scatchard analysis, cell binding (transfected 293T); panel d, Kd2 (low-affinity site).
Assay [2] concerns the target DKK1-AP. The assay can be described thus: Scatchard analysis, cell binding (transfected 293T); panel d, Kd1 (high-affinity site).
In assay [3] the target is DKK2-AP. The assay can be described thus: Scatchard analysis, cell binding (transfected 293T); panel e, Kd2 (low-affinity site).
Assay [4] addresses DKK2-AP. Briefly: Scatchard analysis, cell binding (transfected 293T); panel e, Kd1 (high-affinity site).
Assay [5] has as its target DKK1-AP. The assay can be described thus: Scatchard analysis, cell binding (transfected 293T); panel b.
The target in assay [6] is DKK2-AP. The description is as above.

B1: mkrm2 (receptor)
chain: GSLHSPGLSECFQVNGADYRGHQNYTGPRGAGRPCLFWDQTQQHSYSSASDPQGRWGLGAHNFCRNPDGDVQPWCYVAETEEGIYWRYCDIPTCHMPGYLGCFVDSGAPPALSGPSGTSTKLTVQVCLRFCRMKGYQLAGVEAGYACFCGSESDLARGRPAPATDCDQICFGHPGQLCGGDGRLGIYEVSVGSCQGNWSAPQGVIYSPDFPDEYGPDRNCSWVLGQLGAVLELTFRLFELADSRDRLELRDVSSGNLLRAFDGAHPPPPGPLRLRTAALLLTFRSDARGHAQGFALTYRGLQDTVEGRASPEDSTESLAGDPDGANASCSPKPGAAQASIGARVFSTVTAFSVLLLLLLSLLRLLRRRSCLLAPGKGSLAMGPSRGPGRSWAVWYRRPRGVALPCPPGDSQAEGPAAGYRPLSASSQSSLRSLVSAL
As to B1, the Kd in assay [1] is 2.6 nM; in assay [2], 0.3 nM; in assay [3], 3 nM; in assay [4], 0.36 nM.

B2: mkrm1 (receptor)
chain: ARPAPGPRSGPECFTANGADYRGTQSWTALQGGKPCLFWNETFQHPYNTLKYPNGEGGLGEHNYCRNPDGDVSPWCYVAEHEDGVYWKYCEIPACQMPGNLGCYKDHGNPPPLTGTSKTSNKLTIQTCISFCRSQRFKFAGMESGYACFCGNNPDYWKHGEAASTECNSVCFGDHTQPCGGDGRIILFDTLVGACGGNYSAMAAVVYSPDFPDTYATGRVCYWTIRVPGASRIHFNFTLFDIRDSADMVELLDGYTHRVLVRLSGRSRPPLSFNVSLDFVILYFFSDRINQAQGFAVLYQATKEEPPQERPAVNQTLAEVITEQANLSVSAAHSSKVLYVITPSPSHPPQTAPGSHSWAPSVGANSHRVEGWTVYGLATLLILTVTAVVAKILLHVTFKSHRVPASGDLRDCRQPGASGDIWTIFYEPSTTISIFKKKLKGQSQQDDRNPLVSD
Regarding B2, the Kd in assay [5] was determined as 0.28 nM; in assay [6], 0.35 nM.
